Measured values published in paper PMC5885637 (Journal of molecular biology, 2014).

Molecular target: wild-type mouse PrP (residues 23-231) displayed on the yeast surface (Mus musculus, UniProt P04925)
Assay: flow cytometry on cells

Chain of wild-type mouse PrP (residues 23-231) displayed on the yeast surface (P04925 23-231): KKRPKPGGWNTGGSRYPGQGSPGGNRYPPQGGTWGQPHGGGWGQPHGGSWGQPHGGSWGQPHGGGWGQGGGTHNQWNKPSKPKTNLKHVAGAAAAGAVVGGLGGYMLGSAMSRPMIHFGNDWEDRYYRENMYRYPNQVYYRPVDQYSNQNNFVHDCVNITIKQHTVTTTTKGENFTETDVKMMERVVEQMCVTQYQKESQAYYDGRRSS

B1: ICSM18-scFv (scFv, V domains shown)
VH: EVQLQQSGPELVKPGSSVKISCKASRNTFTDYNLDWVKQSHGKTLEWIGNVYPNNGVTGYNQKFRGKATLTVDKSSSTAYMELHSLTSEDSAVYYCALYYYDVSYWGQGTLVTVSS
VL: QIVLTQSPAIMSASPGEKVTMTCSASSSVSYMHWYQQKSGTSPKRWIYDTSKLASGVPARFSGSGSGTSYSLTISSMEAEDAATYFCHQWRSNPYTFGGGTKLEIK
  Kd: 0.153 µM
